# From article PMC10715038 (Microbiology Spectrum, 2023)
# B1: Cattle ACE2-huFc (soluble cattle ACE2 ectodomain, human IgG1 Fc fusion) (Fc fusion)
# chain: QSTTEEQAKTFLEKFNHEAEDLSYQSSLASWNYNTNITDENVQKMNEARAKWSAFYEEQSRMAKTYSLEEIQNLTLKRQLKALQHSGTSALSAEKSKRLNTILNKMSTIYSTGKVLDPNTQECLALEPGLDDIMENSRDYNRRLWAWEGWRAEVGKQLRPLYEEYVVLENEMARANNYEDYGDYWRGDYEVTGAGDYDYSRDQLMKDVERTFAEIKPLYEQLHAYVRAKLMHTYPSYISPTGCLPAHLLGDMWGRFWTNLYSLTVPFEHKPSIDVTEKMENQSWDAERIFKEAEKFFVSISLPYMTQGFWDNSMLTEPGDGRKVVCHPTAWDLGKGDFRIKMCTKVTMDDFLTAHHEMGHIQYDMAYAAQPYLLRNGANEGFHEAVGEIMSLSAATPHYLKALGLLAPDFHEDNETEINFLLKQALTIVGTLPFTYMLEKWRWMVFKGEIPKQQWMEKWWEMKREIVGVVEPLPHDETYCDPACLFHVAEDYSFIRYYTRTIYQFQFHEALCKTAKHEGALFKCDISNSTEAGQRLLQMLRLGKSEPWTLALENIVGIKTMDVKPLLNYFEPLFTWLKEQNRNSFVGWSTEWTPYSDQSIKVRISLKSALGENAYEWNDNEMYLFQSSVAYAMRKYFSEARNETVLFGEDNVWVSDKKPRISFKFFVTSPNNVSDIIPRTEVENAIRLSRDRINDVFQLDDNSLEFLGIQPTLGPPYEPPVTI
# Target: T1, SARS-CoV-2 WHU01 Spike RBD, monomeric (SARS-CoV-2, UniProt P0DTC2)
# T1 construct: not shown: Fc (human IgG1), C-terminal, cleaved
# Experiment: SPR
# Details: both partners purified
binder,measurement,value
B1,Kd,700 nM
same,koff,0.066 s⁻¹
same,kon,94000 M⁻¹ s⁻¹
